Experimental data reported in patent publication US20240132578A1.

Experiments:
Test in all cases: cell-based or functional assay
[1] = molecular target: HIV-1 Env of isolate MGRM-G-004 (subtype G) (HIV-1)
[2] = molecular target: HIV-1 Env of isolate MGRM-G-017 (subtype G) (HIV-1)
[3] = molecular target: HIV-1 Env of isolate MG RM-A-011 (pseudovirus) (HIV-1)
[4] = molecular target: HIV-1 Env of isolate MGRM-AE-002 (pseudovirus) (HIV-1)
[5] = molecular target: HIV-1 Env of isolate MGRM-G-028 (subtype G) (HIV-1)
[6] = molecular target: HIV-1 Env of isolate 92WR026 (pseudovirus) (HIV-1)
[7] = molecular target: HIV-1 Env of isolate 92RW009 (subtype A) (HIV-1)
[8] = molecular target: HIV-1 Env of isolate MGRM-AE-007 (pseudovirus) (HIV-1)
[9] = molecular target: HIV-1 envelope glycoprotein (Env) of isolate QH0692.42, on pseudovirus (HIV-1)
[10] = molecular target: HIV-1 Env of isolate MGRM-F1-021 (pseudovirus) (HIV-1)
[11] = molecular target: HIV-1 JR-CSF Env K421A (HIV-1 (isolate JR-CSF)) (UniProt P20871)
[12] = molecular target: HIV-1 MGRM-C-026 Env (HIV-1)
[13] = molecular target: HIV-1 envelope glycoprotein (Env) of isolate 92TH021, subtype AE (HIV-1)
[14] = molecular target: HIV-1 envelope glycoprotein (Env) of isolate MGRM-Chronic-B-018, on pseudovirus (HIV-1)
[15] = molecular target: HIV-1 envelope glycoprotein (Env) of isolate MG RM-A-004, subtype A (HIV-1)
[16] = molecular target: HIV-1 JR-CSF Env N392Q (HIV-1 (isolate JR-CSF)) (UniProt P20871)
[17] = molecular target: HIV-1 envelope glycoprotein (Env) of isolate 92RW008, subtype A (HIV-1)
[18] = molecular target: HIV-1 94UG103 Env (HIV-1)
[19] = molecular target: HIV-1 envelope glycoprotein (Env) of isolate 93UG077, subtype A (HIV-1)
[20] = molecular target: HIV-1 JR-CSF Env N411A (HIV-1 (isolate JR-CSF)) (UniProt P20871)

For 4970_K22 (PGT-144) (antibody), which IC50 (µg/mL), pseudovirus neutralization [1] is on record?
Its IC50 (µg/mL), pseudovirus neutralization is > 50 µg/mL.

What about the IC50 (µg/mL), pseudovirus neutralization [2] of the same substance?
Its IC50 (µg/mL), pseudovirus neutralization is 9.97 µg/mL.

And the IC50 (µg/mL), single-round pseudovirus neutralization [3]?
The IC50 (µg/mL), single-round pseudovirus neutralization was > 50 µg/mL.

And the IC50 (µg/mL), single-round pseudovirus neutralization [4]?
Its IC50 (µg/mL), single-round pseudovirus neutralization is > 50 µg/mL.

What about the IC50 (µg/mL), pseudovirus neutralization [5] of the same substance?
The IC50 (µg/mL), pseudovirus neutralization was > 50 µg/mL.

What about the IC50 (µg/mL), single-round pseudovirus neutralization [6] of the same substance?
The IC50 (µg/mL), single-round pseudovirus neutralization was 32.7 µg/mL.

What about the IC50, pseudovirus neutralization [7] of the same substance?
Its IC50, pseudovirus neutralization is 0.893 µg/mL.

What does the source list for 4980_N08 (PGT-143) (antibody)?
IC50 (µg/mL), pseudovirus neutralization [1]: > 50 µg/mL; IC50 (µg/mL), pseudovirus neutralization [2]: 0.107 µg/mL; IC50 (µg/mL), single-round pseudovirus neutralization [3]: > 50 µg/mL; IC50 (µg/mL), single-round pseudovirus neutralization [4]: > 50 µg/mL; IC50 (µg/mL), pseudovirus neutralization [5]: 43 µg/mL; IC50 (µg/mL), single-round pseudovirus neutralization [6]: 5.36 µg/mL; IC50, pseudovirus neutralization [7]: 0.01 µg/mL

How did the IC50 (µg/mL), pseudovirus neutralization [1] turn out when 4993_K13 (PGT-141) (antibody) was run?
The IC50 (µg/mL), pseudovirus neutralization was > 50 µg/mL.

And the IC50 (µg/mL), pseudovirus neutralization [2]?
Its IC50 (µg/mL), pseudovirus neutralization is 0.164 µg/mL.

And the IC50 (µg/mL), single-round pseudovirus neutralization [3]?
Its IC50 (µg/mL), single-round pseudovirus neutralization is > 50 µg/mL.

What about the IC50 (µg/mL), single-round pseudovirus neutralization [4] of the same substance?
Its IC50 (µg/mL), single-round pseudovirus neutralization is > 50 µg/mL.

What about the IC50 (µg/mL), pseudovirus neutralization [5] of the same substance?
Its IC50 (µg/mL), pseudovirus neutralization is 24.9 µg/mL.

What about the IC50 (µg/mL), single-round pseudovirus neutralization [6] of the same substance?
The IC50 (µg/mL), single-round pseudovirus neutralization was 1.78 µg/mL.

And the IC50, pseudovirus neutralization [7]?
Its IC50, pseudovirus neutralization is 0.022 µg/mL.

How did the IC50 (µg/mL), pseudovirus neutralization [1] turn out when 4995_E20 (PGT-142) (antibody) was run?
Its IC50 (µg/mL), pseudovirus neutralization is > 50 µg/mL.

And the IC50 (µg/mL), pseudovirus neutralization [2]?
Its IC50 (µg/mL), pseudovirus neutralization is 0.125 µg/mL.

And the IC50 (µg/mL), single-round pseudovirus neutralization [3]?
Its IC50 (µg/mL), single-round pseudovirus neutralization is > 50 µg/mL.

And the IC50 (µg/mL), single-round pseudovirus neutralization [4]?
The IC50 (µg/mL), single-round pseudovirus neutralization was > 50 µg/mL.

And the IC50 (µg/mL), pseudovirus neutralization [5]?
Its IC50 (µg/mL), pseudovirus neutralization is 30.3 µg/mL.

What about the IC50 (µg/mL), single-round pseudovirus neutralization [6] of the same substance?
Its IC50 (µg/mL), single-round pseudovirus neutralization is 1.78 µg/mL.

And the IC50, pseudovirus neutralization [7]?
Its IC50, pseudovirus neutralization is 0.006 µg/mL.

Which results are given for 4995_P16 (PGT-145) (antibody)?
IC50 (µg/mL), pseudovirus neutralization [1]: > 50 µg/mL; IC50 (µg/mL), pseudovirus neutralization [2]: 0.205 µg/mL; IC50 (µg/mL), single-round pseudovirus neutralization [3]: 0.484 µg/mL; IC50 (µg/mL), single-round pseudovirus neutralization [4]: 1.87 µg/mL; IC50 (µg/mL), pseudovirus neutralization [5]: 0.046 µg/mL; IC50 (µg/mL), single-round pseudovirus neutralization [6]: 1.45 µg/mL; IC50, pseudovirus neutralization [7]: 0.026 µg/mL

With 5123_A06 (PGT-125) (antibody) as the substance, how does the IC50 (µg/mL), pseudovirus neutralization [8] read?
The IC50 (µg/mL), pseudovirus neutralization was 0.876 µg/mL.

And the IC50, pseudovirus neutralization [9]?
The IC50, pseudovirus neutralization was 0.048 µg/mL.

What about the IC50 (µg/mL), pseudovirus neutralization [10] of the same substance?
Its IC50 (µg/mL), pseudovirus neutralization is > 50 µg/mL.

What about the Fold IC50 increase relative to wild-type (pseudovirus neutralization) [11] of the same substance?
The Fold IC50 increase relative to wild-type (pseudovirus neutralization) was 1.2 fold.

What about the IC50, pseudovirus neutralization [12] of the same substance?
The IC50, pseudovirus neutralization was 0.0106 µg/mL.

What about the IC50, pseudovirus neutralization [13] of the same substance?
Its IC50, pseudovirus neutralization is 0.006 µg/mL.

What about the IC50, pseudovirus neutralization [14] of the same substance?
Its IC50, pseudovirus neutralization is > 50 µg/mL.

And the IC50, pseudovirus neutralization [15]?
The IC50, pseudovirus neutralization was > 50 µg/mL.

And the Fold IC50 increase relative to wild-type (pseudovirus neutralization) [16]?
Its Fold IC50 increase relative to wild-type (pseudovirus neutralization) is 1.2 fold.

What about the IC50, pseudovirus neutralization [17] of the same substance?
Its IC50, pseudovirus neutralization is 0.004 µg/mL.

And the IC50, pseudovirus neutralization [18]?
The IC50, pseudovirus neutralization was 0.0124 µg/mL.

What about the IC50, pseudovirus neutralization [19] of the same substance?
The IC50, pseudovirus neutralization was 0.012 µg/mL.

And the Fold IC50 increase relative to wild-type (pseudovirus neutralization) [20]?
Its Fold IC50 increase relative to wild-type (pseudovirus neutralization) is 0.5 fold.

Which results are given for 5141_B17 (PGT-126) (antibody)?
IC50 (µg/mL), pseudovirus neutralization [8]: > 50 µg/mL; IC50, pseudovirus neutralization [9]: 0.048 µg/mL; IC50 (µg/mL), pseudovirus neutralization [10]: > 50 µg/mL; Fold IC50 increase relative to wild-type (pseudovirus neutralization) [11]: 0.7 fold; IC50, pseudovirus neutralization [12]: 0.0076 µg/mL; IC50, pseudovirus neutralization [13]: 0.197 µg/mL; IC50, pseudovirus neutralization [14]: 0.052 µg/mL; IC50, pseudovirus neutralization [15]: > 50 µg/mL; Fold IC50 increase relative to wild-type (pseudovirus neutralization) [16]: 1.6 fold; IC50, pseudovirus neutralization [17]: 0.008 µg/mL; IC50, pseudovirus neutralization [18]: 0.0091 µg/mL; IC50, pseudovirus neutralization [19]: 0.02 µg/mL; Fold IC50 increase relative to wild-type (pseudovirus neutralization) [20]: 0.7 fold

5145_B14 (PGT-127) (antibody) was tested. Which IC50 (µg/mL), pseudovirus neutralization [8] did it give?
Its IC50 (µg/mL), pseudovirus neutralization is > 50 µg/mL.

What about the IC50, pseudovirus neutralization [9] of the same substance?
The IC50, pseudovirus neutralization was 0.129 µg/mL.

What about the IC50 (µg/mL), pseudovirus neutralization [10] of the same substance?
The IC50 (µg/mL), pseudovirus neutralization was > 50 µg/mL.

What about the Fold IC50 increase relative to wild-type (pseudovirus neutralization) [11] of the same substance?
The Fold IC50 increase relative to wild-type (pseudovirus neutralization) was 1.5 fold.

And the IC50, pseudovirus neutralization [13]?
The IC50, pseudovirus neutralization was > 50 µg/mL.

What about the IC50, pseudovirus neutralization [14] of the same substance?
The IC50, pseudovirus neutralization was 1.9 µg/mL.

What about the IC50, pseudovirus neutralization [15] of the same substance?
Its IC50, pseudovirus neutralization is > 50 µg/mL.

What about the Fold IC50 increase relative to wild-type (pseudovirus neutralization) [16] of the same substance?
The Fold IC50 increase relative to wild-type (pseudovirus neutralization) was 1.1 fold.

And the IC50, pseudovirus neutralization [17]?
Its IC50, pseudovirus neutralization is 0.012 µg/mL.

And the IC50, pseudovirus neutralization [19]?
The IC50, pseudovirus neutralization was 0.055 µg/mL.

What about the Fold IC50 increase relative to wild-type (pseudovirus neutralization) [20] of the same substance?
The Fold IC50 increase relative to wild-type (pseudovirus neutralization) was 0.8 fold.

With PGV04 (antibody) as the substance, how does the IC50 (µg/mL), pseudovirus neutralization [8] read?
The IC50 (µg/mL), pseudovirus neutralization was 5.75 µg/mL.

And the IC50 (µg/mL), pseudovirus neutralization [1]?
The IC50 (µg/mL), pseudovirus neutralization was > 50 µg/mL.

What about the IC50 (µg/mL), pseudovirus neutralization [2] of the same substance?
The IC50 (µg/mL), pseudovirus neutralization was 0.065 µg/mL.

What about the IC50 (µg/mL), pseudovirus neutralization [4] of the same substance?
The IC50 (µg/mL), pseudovirus neutralization was 0.569 µg/mL.

What about the IC50 (µg/mL), pseudovirus neutralization [5] of the same substance?
The IC50 (µg/mL), pseudovirus neutralization was 0.352 µg/mL.
